The Immune Epitope Database (IEDB)

Tests used:
HLA-B*51:01 = experiment: IEDB peptide-MHC binding, purified MHC/competitive/fluorescence; filed as Kd, often an IC50 or EC50 that approximates it; ≥ and ≤ were set here for values at or beyond the usual limits of such assays
HLA-B*57:01 [1] = experiment: as above
HLA-A*24:03 [2] = experiment: as above
HLA-B*46:01 [3] = experiment: as above
HLA-A*29:02 [4] = experiment: as above; conditions: source organism: Vibrio parahaemolyticus K5030
HLA-A*26:01 = experiment: as above
HLA-A*02:01 [5] = experiment: as above
HLA-A*02:19 = experiment: as above
HLA-B*18:01 [6] = experiment: as above; conditions: source organism: Vibrio parahaemolyticus K5030
HLA-A*03:01 [7] = experiment: as above
HLA-B*27:03 = experiment: as above
HLA-A*02:11 = experiment: as above
HLA-A*02:03 = experiment: as above; conditions: source organism: Cryptosporidium parvum Iowa II
HLA-B*15:01 [8] = experiment: as above; conditions: source organism: Cryptosporidium parvum Iowa II
HLA-B*15:17 = experiment: as above
HLA-B*57:01 [9] = experiment: IEDB peptide-MHC binding, purified MHC/direct/fluorescence; filed as Kd, often an IC50 or EC50 that approximates it; ≥ and ≤ were set here for values at or beyond the usual limits of such assays
HLA-B*27:05 = experiment: as above
HLA-A*24:03 [10] = experiment: as above; conditions: source organism: Maporal virus
HLA-B*46:01 [11] = experiment: as above
HLA-A*29:02 [12] = experiment: as above
HLA-B*15:01 [13] = experiment: as above
HLA-A*02:12 = experiment: as above; conditions: source organism: Maporal virus
HLA-B*48:01 = experiment: as above
HLA-B*39:01 = experiment: as above
HLA-A*01:01 = experiment: as above
HLA-B*07:02 = experiment: as above
HLA-A*02:01 [14] = experiment: as above
HLA-A*69:01 = experiment: as above
HLA-B*58:01 = experiment: as above
HLA-B*18:01 [15] = experiment: as above
HLA-A*68:02 = experiment: as above; conditions: source organism: Maporal virus
HLA-A*03:01 [16] = experiment: as above
HLA-A*31:01 = experiment: as above
HLA-B*44:02 = experiment: as above
HLA-B*40:01 = experiment: as above
HLA-A*11:01 = experiment: as above
HLA-B*08:01 = experiment: as above; conditions: source organism: Influenza A virus (A/Viet Nam/HN/2004(H5N1))
HLA-B*08:02 = experiment: as above; conditions: source organism: Influenza A virus(A/swine/Shandong/fNY/2003(H9N2))
HLA-A*24:02 = experiment: as above; conditions: source organism: Influenza A virus (A/Viet Nam/HN/2004(H5N1))
[17] = source organism: Vibrio parahaemolyticus K5030
[18] = source organism: Cryptosporidium parvum Iowa II
[19] = source organism: Orthohantavirus andesense
[20] = source organism: Encephalitozoon cuniculi GB-M1
[21] = source organism: Influenza A virus (A/Viet Nam/HN/2004(H5N1))
[22] = source organism: Mycobacterium avium 104

Measured: Kd

LQNFCQHLV
0.0251 µM: HLA-A*02:19; [17]
≥ 20 µM: HLA-B*51:01; [17] | HLA-B*57:01 [1]; [17] | HLA-A*24:03 [2]; [17] | HLA-B*46:01 [3]; [17] | HLA-A*26:01; [17] | HLA-B*18:01 [6] | HLA-A*03:01 [7]; [17] | HLA-B*27:03; [17]
0.0024 µM: HLA-A*02:01 [5]; [17]
0.0196 µM: HLA-A*29:02 [4]
0.0006 µM: HLA-A*02:11; [17]

AYYKPYVQL
0.0009 µM: HLA-A*24:03 [2]; source organism: Bacillus cereus G9241

SGLPGIFIV
≥ 20 µM: HLA-A*02:03 | HLA-B*57:01 [1]; [18] | HLA-B*46:01 [3]; [18] | HLA-B*15:01 [8] | HLA-A*26:01; [18] | HLA-B*15:17; [18] | HLA-A*02:01 [5]; [18] | HLA-A*02:19; [18] | HLA-A*03:01 [7]; [18] | HLA-B*27:03; [18]
5.45 µM: HLA-A*02:11; [18]

GYDFEREGY
0.0358 µM: HLA-A*24:03 [2]; source organism: Influenza A virus (A/swine/Italy/1509-6/97(H1N1))

TRDHVNLVL
≥ 20 µM: HLA-B*57:01 [9]; [19] | HLA-B*27:05; [19] | HLA-A*24:03 [10] | HLA-B*46:01 [11]; [19] | HLA-A*29:02 [12]; [19] | HLA-B*15:01 [13]; [19] | HLA-A*02:12 | HLA-B*48:01; [19] | HLA-A*01:01; [19] | HLA-B*07:02; [19] | HLA-A*02:01 [14]; [19] | HLA-A*69:01; [19] | HLA-B*58:01; [19] | HLA-B*18:01 [15]; [19] | HLA-A*68:02 | HLA-A*03:01 [16]; [19] | HLA-A*31:01; [19] | HLA-B*44:02; [19] | HLA-B*51:01; [19] | HLA-A*26:01; [19] | HLA-B*15:17; [19] | HLA-B*27:03; [19]
0.0457 µM: HLA-B*39:01; [19]

SMIFSVLDA
0.129 µM: HLA-A*02:11; [20]
0.0014 µM: HLA-A*02:01 [5]; [20]

VHFRNQVKI
1.56 µM: HLA-B*39:01; [21]
≥ 20 µM: HLA-B*40:01; [21] | HLA-A*11:01; [21] | HLA-B*27:05; [21] | HLA-B*46:01 [11]; [21] | HLA-B*15:01 [13]; [21] | HLA-B*08:01 | HLA-B*08:02 | HLA-A*01:01; [21] | HLA-B*07:02; [21] | HLA-A*02:01 [14]; [21] | HLA-A*69:01; [21] | HLA-B*58:01; [21] | HLA-A*03:01 [16]; [21] | HLA-A*24:02 | HLA-A*31:01; [21]

VRDVVMPAL
0.0674 µM: HLA-B*39:01; [22]
≥ 20 µM: HLA-B*57:01 [9]; [22] | HLA-B*40:01; [22] | HLA-A*11:01; [22] | HLA-B*27:05; [22] | HLA-B*46:01 [11]; [22] | HLA-A*29:02 [12]; [22] | HLA-B*15:01 [13]; [22] | HLA-B*48:01; [22] | HLA-A*01:01; [22] | HLA-A*02:01 [14]; [22] | HLA-A*69:01; [22] | HLA-B*58:01; [22] | HLA-B*18:01 [15]; [22] | HLA-A*03:01 [16]; [22] | HLA-A*31:01; [22] | HLA-B*44:02; [22]
